From CN113372445A

Legend:
人PD-1蛋白 (human) [1] = target: 人PD-1蛋白 (human) (UniProt Q15116); assay: competition ELISA: human PD-1 coated, antibody titrated together with biotin-labelled PD-L1 (competitor)
[2] = target: PD-1 on GS-J2/PD-1 cells (human) (UniProt Q15116); assay: cell-based or functional assay
人PD-1蛋白 (human) [3] = target: 人PD-1蛋白 (human) (UniProt Q15116); assay: BLI (ForteBio), antibody loaded on sensor, PD-1 protein 100-6.25 nM in solution

Chain of 人PD-1蛋白 (human) (Q15116 25-167 limits assumed): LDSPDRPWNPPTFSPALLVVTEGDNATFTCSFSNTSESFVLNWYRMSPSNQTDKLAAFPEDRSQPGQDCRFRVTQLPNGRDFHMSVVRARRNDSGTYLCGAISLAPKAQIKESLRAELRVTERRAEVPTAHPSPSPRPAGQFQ
Chain of PD-1 on GS-J2/PD-1 cells (human) (Q15116 25-288 limits assumed): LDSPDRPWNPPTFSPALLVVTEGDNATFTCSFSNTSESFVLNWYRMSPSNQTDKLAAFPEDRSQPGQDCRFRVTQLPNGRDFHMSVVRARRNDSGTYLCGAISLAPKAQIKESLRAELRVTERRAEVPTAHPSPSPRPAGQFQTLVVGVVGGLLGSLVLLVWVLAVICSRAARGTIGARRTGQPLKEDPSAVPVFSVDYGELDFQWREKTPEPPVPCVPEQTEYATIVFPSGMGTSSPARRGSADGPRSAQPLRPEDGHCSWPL

| Substance | EC50 (人PD-1蛋白 (human) [1]) [nM] | EC50(nM), luciferase reporter (RLU, 激活百分比) in GS-J2/PD-1 cells co-cultured with GS-C2/PD-L1 cells [2] [nM] | Kd (人PD-1蛋白 (human) [3]) [nM] | koff (人PD-1蛋白 (human) [3]) [s⁻¹] | kon (人PD-1蛋白 (human) [3]) [M⁻¹ s⁻¹] |
| --- | --- | --- | --- | --- | --- |
| Keytruda (antibody) | 110 | 0.142 | 1.01 | 0.000286 | 283000 |
| Opdivo (antibody) | 175 | – | 1.63 | – | – |
